Eleven molecules from patent publication US20140377253A1 (published 2014) can be followed below.

Sequences and labels used below:
T1: FcγRIIB expressed on cells (UniProt P31994 43-310)
T1 chain: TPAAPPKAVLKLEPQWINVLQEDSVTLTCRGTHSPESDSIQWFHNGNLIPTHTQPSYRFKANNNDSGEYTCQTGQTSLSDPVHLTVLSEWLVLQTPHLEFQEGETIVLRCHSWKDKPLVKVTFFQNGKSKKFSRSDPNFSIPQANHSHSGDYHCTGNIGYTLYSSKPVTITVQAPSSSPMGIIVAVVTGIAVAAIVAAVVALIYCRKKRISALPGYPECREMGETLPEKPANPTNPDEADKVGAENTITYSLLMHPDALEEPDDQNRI

B1: V263L (protein)
chain: APELLGGPSVFLFPPKPKDTLMISRTPEVTCVLVDVSHEDPEVKFNWYVDGVEVHNAKTKPREEQYNSTYRVVSVLTVLHQDWLNGKEYKCKVSNKALPAPIEKTISKAK
B2: V273S (protein)
chain: B1 chain with L33V, V43S
B3: V273M (protein)
chain: B1 chain with L33V, V43M
B4: V266L (protein)
chain: B1 chain with L33V, V36L
B5: V273Y (protein)
chain: B1 chain with L33V, V43Y
B6: V305W (protein)
chain: B1 chain with L33V, V75W
B7: V305K (protein)
chain: B1 chain with L33V, V75K
B8: V273L (protein)
chain: B1 chain with L33V, V43L
B9: V273C (protein)
chain: B1 chain with L33V, V43C
B10: V273E (protein)
chain: B1 chain with L33V, V43E
B11: V273F (protein)
chain: B1 chain with L33V, V43F

Changes are numbered by the printed parent chain. Names and notes keep the numbering of the source.

The target in one assay is FcγRIIIA expressed on cells (UniProt P08637 17-254). The experiment in a line: FACS. (In flow cytometry, cells or beads pass a laser one at a time.)
Chain of FcγRIIIA expressed on cells (P08637 17-254): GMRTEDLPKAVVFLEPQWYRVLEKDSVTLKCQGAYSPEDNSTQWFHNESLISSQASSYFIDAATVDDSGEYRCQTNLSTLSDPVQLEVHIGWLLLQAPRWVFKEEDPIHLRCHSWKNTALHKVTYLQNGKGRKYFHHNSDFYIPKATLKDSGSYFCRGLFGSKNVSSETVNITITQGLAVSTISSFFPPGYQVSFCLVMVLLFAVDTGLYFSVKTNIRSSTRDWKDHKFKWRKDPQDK
As usually defined, the EC50 is the concentration needed to bring the measured effect to its halfway point. Read a high EC50 as a need for much substance. The molecule B1 yielded an EC50 of 1.52 nM.

As to B2, it took 1.33 nM to reach a half-maximal effect (EC50).

In the case of B3, the EC50 was found to be 1.59 nM.

B4 came in with an EC50 of 0.76 nM.

B5 registered an EC50 of 3.19 nM. Compared with the last molecule, the EC50 is about 4.2-fold higher.

B6 came in with an EC50 of 0.74 nM.

Turning to B7, a half-maximal response (EC50) required 0.51 nM.

In turn, B8 yielded an EC50 of 0.69 nM.

Consider B9, for which the concentration giving a half-maximal response (EC50) worked out at 1.19 nM.

The molecule B10 returned an EC50 of 1.78 nM.

In turn, B11 came in with an EC50 of 2.01 nM.

A further assay addresses T1, FcγRIIB expressed on cells. The experiment in a line: FACS.
Turning to B1, a half-maximal response (EC50) required 1.8 nM.

As for B2, the EC50 came to 1.72 nM.

The molecule B3 showed an EC50 of 1.63 nM.

As for B4, the EC50 was 2.22 nM.

On to B5, for which the EC50 stood at 1.18 nM.

On to B6, for which a half-maximal response (EC50) required 2.86 nM.

Molecule B7 had a concentration for a half-maximal effect (EC50) of 1.93 nM.

B8 showed an EC50 of 1.66 nM.

Molecule B9 yielded an EC50 of 2.03 nM.

B10 showed an EC50 of 1.66 nM.

Take B11: the EC50 worked out at 1.08 nM.
